Source: publication PMC3366460

Biological target: HsUbcH5b(C85S)~Ub oxyester-linked conjugate (human | mammalian) (UniProt P62837)
Assay: pull-down

stoichiometry N: 4
Substance: HsUbcH5b(C85S)~Ub oxyester-linked conjugate (from UniProt P62837 1-147; P0CG48 1-76) (complex)
